Experimental data: the supplement of paper PMC9876800

Tested on: peptide library, one residue held at a place counted from the S/T acceptor
Test: relative phosphorylation of the sub-library (ratio to the mean residue at this position); higher = residue favoured
Summary of the method: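 Purified recombinant kinases were reacted in 384-well plates with biotinylated degenerate peptide sub-libraries, each having one residue fixed at one position around a central Ser/Thr. The reaction mix contained 50 μM peptide plus 50 μM ATP spiked with γ-32P-ATP and ran for 90 min under kinase-specific conditions. Relative sub-library phosphorylation, taken from densitometry of phosphorimaged streptavidin membrane spots, is a ratio to the mean residue at that position.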

Sequence of CAMK2B, construct: Full length, human (Q13554 whole entry, looked up): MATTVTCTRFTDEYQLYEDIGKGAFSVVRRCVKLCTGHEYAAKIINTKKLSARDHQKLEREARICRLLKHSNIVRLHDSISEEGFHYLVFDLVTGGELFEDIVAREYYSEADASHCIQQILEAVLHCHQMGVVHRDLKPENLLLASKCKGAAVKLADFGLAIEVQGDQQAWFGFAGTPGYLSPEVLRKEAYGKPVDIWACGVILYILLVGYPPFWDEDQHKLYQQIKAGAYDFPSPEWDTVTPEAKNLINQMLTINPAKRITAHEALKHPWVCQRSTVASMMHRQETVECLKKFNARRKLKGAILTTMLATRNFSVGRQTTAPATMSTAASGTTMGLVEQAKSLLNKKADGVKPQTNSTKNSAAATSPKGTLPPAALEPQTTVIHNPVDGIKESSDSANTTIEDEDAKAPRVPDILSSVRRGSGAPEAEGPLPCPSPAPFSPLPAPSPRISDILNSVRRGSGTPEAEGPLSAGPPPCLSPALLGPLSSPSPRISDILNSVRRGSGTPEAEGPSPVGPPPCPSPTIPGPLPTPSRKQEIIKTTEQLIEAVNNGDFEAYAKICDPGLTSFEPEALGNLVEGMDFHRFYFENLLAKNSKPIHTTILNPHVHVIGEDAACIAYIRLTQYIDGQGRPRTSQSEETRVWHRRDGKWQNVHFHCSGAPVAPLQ
Sequence of CDK4, construct: Full length, human (P11802 whole entry, looked up): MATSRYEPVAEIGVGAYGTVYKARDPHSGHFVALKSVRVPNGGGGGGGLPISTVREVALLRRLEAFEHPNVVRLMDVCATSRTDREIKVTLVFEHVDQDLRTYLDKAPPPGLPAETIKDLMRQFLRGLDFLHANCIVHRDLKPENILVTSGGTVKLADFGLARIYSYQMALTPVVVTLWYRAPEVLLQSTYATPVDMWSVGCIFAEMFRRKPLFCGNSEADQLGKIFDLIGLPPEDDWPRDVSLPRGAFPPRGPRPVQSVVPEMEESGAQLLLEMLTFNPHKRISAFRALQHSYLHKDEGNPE

CAMK2B, construct: Full length, human (from UniProt Q13554)
relative phosphorylation
Conditions	at +1	at +2	at +3	at +4	at -1	at -2	at -3	at -4	at -5
A fixed	0.454	0.673	1.07	0.895	0.744	1.02	0.589	0.903	0.883
D fixed	0.842	4.46	2.37	2.5	1.57	0.86	0.527	0.849	0.702
E fixed	1.45	3.53	2.59	2.45	1.32	1.05	0.627	1.21	0.659
F fixed	2.27	0.366	0.6	0.619	0.736	0.523	0.58	0.852	1.19
G fixed	0.573	0.828	1.26	1.09	1.06	1.46	0.774	1.04	0.836
H fixed	0.758	0.895	0.881	0.893	1.15	1.1	1.03	1.04	0.803
I fixed	1.52	0.405	0.575	0.529	0.482	0.336	0.325	0.729	1.08
K fixed	0.457	0.32	0.489	0.459	1.01	0.848	2.02	1.29	0.791
L fixed	1.1	0.332	0.729	0.506	0.738	0.367	0.382	0.707	1.71
M fixed	1.52	0.426	0.648	0.612	0.948	1.01	0.652	1.07	1.12
N fixed	0.837	1.3	1.13	1.05	1.48	1.38	0.929	0.983	0.749
P fixed	0.295	0.525	0.932	1.43	1.45	0.471	1.11	1.03	1.05
Q fixed	1.43	1.1	1.14	1.02	1.41	3.49	1.22	1.14	0.893
R fixed	0.566	0.381	0.438	0.458	0.795	1.06	4.44	1.3	1.16
V fixed	1.42	0.467	0.62	0.638	0.592	0.388	0.365	0.815	1.2
W fixed	0.534	0.397	0.701	0.983	0.486	0.992	0.758	0.958	1.16
Y fixed	0.988	0.593	0.827	0.882	1.03	0.651	0.679	1.09	1.03
pThr fixed	1.72	1.39	1.97	3.94	0.586	0.581	0.708	0.806	0.783
pTyr fixed	1.76	4.63	1.88	2.72	1.75	0.651	0.664	0.835	0.902

CDK2, construct: Full length, human (from UniProt P24941)
relative phosphorylation
Conditions	at +1	at +2	at +3	at +4	at -1	at -2	at -3	at -4	at -5
A fixed	0.422	0.748	0.457	0.579	0.947	0.875	1.06	1.02	1.03
D fixed	0.304	0.611	0.279	0.735	1.08	0.754	0.692	1.01	1.09
E fixed	0.304	0.544	0.265	0.591	0.846	0.701	0.887	1.08	0.998
F fixed	0.365	0.976	0.438	0.837	1.1	1.29	0.928	1.08	1.01
G fixed	0.923	0.664	0.497	1.13	1.39	0.891	1.6	1.03	0.824
H fixed	0.367	1.28	0.871	1.04	0.879	1.21	1.3	1.21	1.17
I fixed	0.409	0.781	0.325	0.92	0.428	0.804	0.877	0.911	0.684
K fixed	0.439	1.91	8.59	1.62	1.01	0.798	0.839	1.02	1.17
L fixed	0.384	0.947	0.358	1.12	1.02	1.27	0.88	0.911	0.787
M fixed	0.407	1.09	0.405	1.3	1.02	1.27	0.895	0.814	0.8
N fixed	0.402	1.08	0.524	1.06	1.01	0.963	0.91	0.888	0.813
P fixed	10.1	0.384	0.626	0.731	0.7	1.3	0.804	0.589	1.1
Q fixed	0.499	1.47	0.665	1.17	1.37	1.09	1.18	1.18	1.13
R fixed	0.494	1.94	1.49	0.939	1.3	0.684	0.88	0.829	1.06
V fixed	0.516	1.08	0.392	0.977	0.643	0.892	1.04	0.907	1
W fixed	0.326	0.667	0.429	1.32	1.34	1.19	1.2	1.4	1.13
Y fixed	0.33	0.82	0.393	0.935	0.92	1.01	1.03	1.1	1.19
pThr fixed	1.22	0.953	1.31	0.611	0.373	0.917	1.01	0.787	0.965
pTyr fixed	2.21	0.603	1.1	0.825	0.766	1.63	1.13	0.938	0.898

CDK4, construct: Full length, human (from UniProt P11802)
relative phosphorylation
Conditions	at +1	at +2	at +3	at +4	at -1	at -2	at -3	at -4	at -5
A fixed	0.244	0.682	0.688	0.766	0.896	0.85	1.04	1	1.02
D fixed	0.173	0.416	0.335	0.58	0.421	0.228	0.387	0.667	0.799
E fixed	0.133	0.337	0.246	0.526	0.504	0.298	0.59	0.844	0.796
F fixed	0.237	0.736	0.778	0.851	0.96	1.06	0.741	0.852	0.797
G fixed	0.746	0.88	0.82	1.11	1.03	0.596	1.4	1.18	1.28
H fixed	0.266	1.32	1.05	1.38	1.02	1.04	1.13	1.09	1.16
I fixed	0.278	1.16	0.428	0.855	0.531	1.01	0.915	0.838	0.917
K fixed	0.29	1.55	1.86	1.2	1.29	0.798	1.21	1.23	1.4
L fixed	0.364	0.967	0.412	0.587	1.28	1.41	0.874	0.808	0.752
M fixed	0.267	1.03	0.566	0.909	1.46	1.28	0.796	0.827	0.813
N fixed	0.258	1.27	0.739	0.976	0.731	0.948	0.856	1.16	1.08
P fixed	12.4	0.481	0.92	0.848	0.94	2.52	1.14	1.08	1.14
Q fixed	0.275	0.789	0.652	0.801	1.27	0.76	0.704	0.832	0.822
R fixed	0.324	2.59	4.48	2.2	1.9	1.39	2.5	1.52	1.6
V fixed	0.302	1.01	0.417	0.636	0.624	0.891	0.889	0.658	0.68
W fixed	0.239	0.624	1.54	1.42	0.996	0.88	0.87	1.28	0.782
Y fixed	0.222	1.16	1.07	1.36	1.13	1.05	0.957	1.13	1.15
pThr fixed	0.323	0.406	0.361	0.422	0.237	0.382	0.592	0.644	0.77
pTyr fixed	0.482	0.391	0.503	0.432	0.357	0.356	0.592	0.544	0.934
